Source: patent US20040132969A1, “Antibodies, peptides, analogs and uses thereof” (priority 2000, published 2004)
Entries after “also recorded” stand apart in the source; their conditions may differ.

Test system: HUVEC and fibroblasts
Test: Neutral Red cell metabolism cytotoxicity assay
Format: cell-based, human
Conditions: HUVEC and fibroblast monocultures; 72 hours
Experimental: In order to determine whether the fibrin E analogue peptides WTM33, WTM34, WTM35, WTM36, and WTM37 are cytotoxic when applied to the HUVEC and fibroblasts used in the Angiosys™ angiogenesis assay, these reagents were examined in two different cytotoxicity assays. To simplify performance of these assays and discriminate between fibroblasts and HUVEC, cells were grown in monocultures rather than together and then treated with the experimental reagents as described below.
A Neutral Red cell metabolism assay was used to determine the cytotoxicity to HUVEC and fibroblasts of the fibrin E analogue peptides. This assay works on the basis of colorimetric measurement of a red dye which, is reported to be taken up into the lysosomes of uninjured cells. Thus the stronger the colour signal obtained from a well of cells, the greater the percentage of cells remaining viable within that well. HUVEC cells were inoculated into wells of 96 wells at a density of 5×10^3 cells per well, in endothelial cell culture medium. Fibroblasts were similarly seeded 5×10^3 cells per well. The cells were incubated for 24 hours under standard conditions to permit adherence and growth, and then treated for 72 hours with fresh medium containing fibrin E peptides over the same range of concentrations used in the Angiosys™ angiogenesis assay. For each concentration of each of the six peptides, four replicate wells of each cell type were treated and then assayed. Following incubation with the test compounds, the medium was removed and replaced with 200 μl per well of fresh medium containing 3.57 mg neutral red per 100 ml. The cells were incubated with this neutral red solution for 3 hours, after which this solution was decanted and replaced with 100 μl 1% formaldehyde/1% CaCl2. This was rapidly decanted and replaced in turn with 200 μl 50% ethanol/1% acetic acid, which was incubated at room temperature for 30 minutes to extract the neutral red from the cells. The plates were then read in a 96 well plate-format spectrophotometer, measuring absorbance at 540 nm. Mean absorbance values from each group of four wells were calculated and expressed as a percentage±standard deviation of the mean value obtained from control wells incubated in the absence of fibrin E analogue peptide.

LHADPDLGVLCPTGC [WTM34]
cytotoxicity / cell viability, Neutral Red assay: not cytotoxic; also recorded: no toxicity
